The sequences below were run against FGFR1 (UniProt P11362) (assay: phosphorylation enrichment, bacterial display (enrichment ratio); higher = better substrate or ligand; peptides without Tyr show the background).
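Further: 11-residue human phosphosite peptides and single-mutation variants displayed on the E. coli surface, counted by deep sequencing, each peptide's frequency after selection divided by its frequency in the unselected input library; frequency after pTyr selection over input frequency; kinase dosed for 20-30% of maximal phosphorylation in three min.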

Sequence of FGFR1 (P11362 whole entry, looked up): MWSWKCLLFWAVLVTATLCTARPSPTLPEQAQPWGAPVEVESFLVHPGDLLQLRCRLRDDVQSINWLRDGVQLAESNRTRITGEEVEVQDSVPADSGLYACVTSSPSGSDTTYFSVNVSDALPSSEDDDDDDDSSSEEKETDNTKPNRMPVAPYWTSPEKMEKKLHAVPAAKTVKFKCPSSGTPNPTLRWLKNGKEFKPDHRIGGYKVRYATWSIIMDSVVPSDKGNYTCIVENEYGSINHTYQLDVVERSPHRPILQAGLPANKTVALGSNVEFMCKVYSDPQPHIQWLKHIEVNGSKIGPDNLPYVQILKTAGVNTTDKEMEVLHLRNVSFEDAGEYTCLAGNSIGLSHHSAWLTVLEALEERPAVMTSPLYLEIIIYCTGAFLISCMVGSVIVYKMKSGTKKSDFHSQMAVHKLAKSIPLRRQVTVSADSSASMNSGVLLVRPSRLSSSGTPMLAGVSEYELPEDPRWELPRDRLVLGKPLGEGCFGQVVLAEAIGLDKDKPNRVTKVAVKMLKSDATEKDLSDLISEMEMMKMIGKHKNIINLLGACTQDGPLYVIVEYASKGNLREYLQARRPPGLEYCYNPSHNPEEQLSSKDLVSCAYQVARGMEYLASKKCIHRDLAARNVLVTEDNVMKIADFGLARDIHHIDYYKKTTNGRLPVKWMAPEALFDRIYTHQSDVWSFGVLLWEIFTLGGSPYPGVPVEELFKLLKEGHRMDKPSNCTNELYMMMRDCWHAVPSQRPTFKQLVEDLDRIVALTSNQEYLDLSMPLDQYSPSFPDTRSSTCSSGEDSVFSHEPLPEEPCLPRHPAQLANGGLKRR

Row | Sequence | phosphorylation enrichment
1 | SIKDKYLTALY [KCNH2_Y611_V612L] | 0.417
2 | AAGGRYYGLVG [HARS1_Y363_D364Y] | 0.432
3 | SQKRKYIEIDS [SDAD1_Y580] | 0.463
4 | CTTIHSNYMCN [TP53_Y234_Y234S] | 0.483
5 | LEHCQYVTEKV [ALDOB_Y204] | 1.6
6 | SVTCTYSSALN [TP53_Y126_P128S] | 0.483
7 | ADARMYGDLPW [PLP1_Y207_V209D] | 0.6
8 | SSFDIYHLSRE [KIR3DL2_Y253_YF] | 1.44
9 | TLNVRHESVQA [CEACAM7_Y236_Y236H] | 0.451
10 | VDEVLYEDSST [MTHFS_Y197] | 0.742
11 | DDLTDYLMKIL [ACTA1_Y190_R185D] | 0.516
12 | TTGLIYIGSHD [AASDH_Y870] | 0.445
13 | RPQDGFRIVQH [PTPRT_Y1329_Y1329F] | 0.43
14 | EFNLMYDGTKE [IRF6_Y97] | 0.498
15 | GQDLLYEDEDL [PACS1_Y303_F302L] | 0.559
16 | YAFQLYDLDPD [CHP2_Y123_R127P] | 1.65
17 | KKKKQYKDKYL [CASK_Y708] | 0.506

Row | Sequence | phosphorylation enrichment
18 | QRRFVYFFSFL [PTEN_Y176_YF] | 0.573
19 | HNELFYEEAEH [VANGL1_Y345_YF] | 0.809
20 | DLGIQYKVLKP [CTNNA1_Y177_A179V] | 0.481
21 | SSKILYHIIKG [CDH17_Y489] | 1.22
22 | LYSDHYSPSGR [TMPRSS12_Y23] | 1.14
23 | RLQEDYDHSYY [ESD_Y258_G257D] | 0.923
24 | CNRADYSKLAP [GNE_Y22] | 0.472
25 | IALSKYGRVKW [FGF6_Y186_R191W] | 0.387
26 | LNPLVYTLRNA [OR4C12_Y285_V283L] | 1.01
27 | LSDGPYSSPFE [EPOR_Y485_N487S_YF] | 0.781
28 | CTTFHYNFMCN [TP53_Y234_I232F_YF] | 0.579
29 | VKKKLDEEIDQ [CYP17A1_Y329_Y329D] | 0.578
30 | HICTAYELVLA [DHCR24_Y190] | 3.12
31 | TVFENYVADIK [RHOA_Y42_E47K] | 0.48
32 | GKLIFYDLRGE [KARS1_Y145] | 0.517
33 | RFLERYIYNPE [HLA-DPB1_Y57_R61P] | 0.55

These sequences were tested against FGFR3 (UniProt P22607) in the same assay as above.
Sequence of FGFR3 (P22607 whole entry, looked up): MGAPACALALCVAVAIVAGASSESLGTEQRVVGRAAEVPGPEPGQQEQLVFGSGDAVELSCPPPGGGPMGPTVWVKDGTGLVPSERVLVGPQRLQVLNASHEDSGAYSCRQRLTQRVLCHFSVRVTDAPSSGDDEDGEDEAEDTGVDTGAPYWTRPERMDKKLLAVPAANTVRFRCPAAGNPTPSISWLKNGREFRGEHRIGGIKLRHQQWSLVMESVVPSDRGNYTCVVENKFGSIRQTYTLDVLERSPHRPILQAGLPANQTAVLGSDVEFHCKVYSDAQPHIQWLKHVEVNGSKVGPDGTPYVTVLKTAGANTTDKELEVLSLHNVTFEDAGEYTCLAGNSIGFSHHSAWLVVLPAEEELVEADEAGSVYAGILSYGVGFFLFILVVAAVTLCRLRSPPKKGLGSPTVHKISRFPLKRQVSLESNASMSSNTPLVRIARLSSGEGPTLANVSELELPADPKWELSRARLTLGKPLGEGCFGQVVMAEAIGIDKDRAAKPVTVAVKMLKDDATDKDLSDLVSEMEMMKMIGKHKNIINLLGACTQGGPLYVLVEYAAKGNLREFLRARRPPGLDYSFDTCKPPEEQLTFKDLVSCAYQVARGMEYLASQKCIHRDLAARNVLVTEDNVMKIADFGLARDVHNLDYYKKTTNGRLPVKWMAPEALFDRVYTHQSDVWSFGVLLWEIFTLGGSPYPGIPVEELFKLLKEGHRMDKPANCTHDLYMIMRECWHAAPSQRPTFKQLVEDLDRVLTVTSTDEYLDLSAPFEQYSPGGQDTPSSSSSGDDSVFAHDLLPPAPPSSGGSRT

Row | Sequence | phosphorylation enrichment
34 | SIKDKYLTALY [KCNH2_Y611_V612L] | 0.546
35 | AAGGRYYGLVG [HARS1_Y363_D364Y] | 0.451
36 | SQKRKYIEIDS [SDAD1_Y580] | 0.376
37 | CTTIHSNYMCN [TP53_Y234_Y234S] | 0.588
38 | LEHCQYVTEKV [ALDOB_Y204] | 1.91
39 | SVTCTYSSALN [TP53_Y126_P128S] | 0.726
40 | ADARMYGDLPW [PLP1_Y207_V209D] | 0.7
41 | SSFDIYHLSRE [KIR3DL2_Y253_YF] | 1.29
42 | TLNVRHESVQA [CEACAM7_Y236_Y236H] | 0.39
43 | VDEVLYEDSST [MTHFS_Y197] | 0.886
44 | DDLTDYLMKIL [ACTA1_Y190_R185D] | 0.669
45 | TTGLIYIGSHD [AASDH_Y870] | 0.79
46 | RPQDGFRIVQH [PTPRT_Y1329_Y1329F] | 0.45
47 | EFNLMYDGTKE [IRF6_Y97] | 0.603
48 | GQDLLYEDEDL [PACS1_Y303_F302L] | 0.889
49 | YAFQLYDLDPD [CHP2_Y123_R127P] | 1.37
50 | KKKKQYKDKYL [CASK_Y708] | 0.471

Row | Sequence | phosphorylation enrichment
51 | QRRFVYFFSFL [PTEN_Y176_YF] | 0.908
52 | HNELFYEEAEH [VANGL1_Y345_YF] | 0.964
53 | DLGIQYKVLKP [CTNNA1_Y177_A179V] | 0.692
54 | SSKILYHIIKG [CDH17_Y489] | 0.923
55 | LYSDHYSPSGR [TMPRSS12_Y23] | 0.958
56 | RLQEDYDHSYY [ESD_Y258_G257D] | 1.03
57 | CNRADYSKLAP [GNE_Y22] | 0.61
58 | IALSKYGRVKW [FGF6_Y186_R191W] | 0.357
59 | LNPLVYTLRNA [OR4C12_Y285_V283L] | 1.04
60 | LSDGPYSSPFE [EPOR_Y485_N487S_YF] | 0.715
61 | CTTFHYNFMCN [TP53_Y234_I232F_YF] | 0.672
62 | VKKKLDEEIDQ [CYP17A1_Y329_Y329D] | 0.579
63 | HICTAYELVLA [DHCR24_Y190] | 2.2
64 | TVFENYVADIK [RHOA_Y42_E47K] | 0.688
65 | GKLIFYDLRGE [KARS1_Y145] | 0.584
66 | RFLERYIYNPE [HLA-DPB1_Y57_R61P] | 0.671
